The text below walks through data of article PMC6818471.

Series [1] can be described thus: [14C]-urate uptake, polarized or depolarized oocytes. As to conditions: glycan lost.
A short description of series [2]: [14C]-urate uptake, oocytes co-expressing TMEM85. The settings on record: glycan lost.
A short description of series [3]: [14C]-urate uptake, oocytes co-expressing ITM2B. As to conditions: glycan lost.
A short description of series [4]: confocal immunofluorescence, HEK 293T. As to conditions: glycan lost; control: wild type GLUT9b.

B1: GLUT9a: N90Q (protein)
parent chain: MARKQNRNSKELGLVPLTDDTSHAGPPGPGRALLECDHLRSGVPGGRRRKDWSCSLLVASLAGAFGSSFLYGYNLSVVNAPTPYIKAFYNESWERRHGRPIDPDTLTLLWSVTVSIFAIGGLVGTLIVKMIGKVLGRKHTLLANNGFAISAALLMACSLQAGAFEMLIVGRFIMGIDGGVALSVLPMYLSEISPKEIRGSLGQVTAIFICIGVFTGQLLGLPELLGKESTWPYLFGVIVVPAVVQLLSLPFLPDSPRYLLLEKHNEARAVKAFQTFLGKADVSQEVEEVLAESRVQRSIRLVSVLELLRAPYVRWQVVTVIVTMACYQLCGLNAIWFYTNSIFGKAGIPPAKIPYVTLSTGGIETLAAVFSGLVIEHLGRRPLLIGGFGLMGLFFGTLTITLTLQDHAPWVPYLSIVGILAIIASFCSGPGGIPFILTGEFFQQSQRPAAFIIAGTVNWLSNFAVGLLFPFIQKSLDTYCFLVFATICITGAIYLYFVLPETKNRTYAEISQAFSKRNKAYPPEEKIDSAVTDGKINGRP
With B1, in series [1] (control: wild type GLUT9a), the “other: transport activity” value is “no change”. Also, the “other: inhibition of urate uptake by TMEM85” value in series [2] (control: wild type GLUT9a) is listed as “no change”. Also, the “other: inhibition of urate uptake by ITM2B, other: percent inhibition of uptake” value in series [3] (control: wild type GLUT9a) is on record as “no change, ∼65–70 vs 65–70”.

B2: GLUT9b: N61Q (protein)
parent chain: MKLSKKDRGEDEESDSAKKKLDWSCSLLVASLAGAFGSSFLYGYNLSVVNAPTPYIKAFYNESWERRHGRPIDPDTLTLLWSVTVSIFAIGGLVGTLIVKMIGKVLGRKHTLLANNGFAISAALLMACSLQAGAFEMLIVGRFIMGIDGGVALSVLPMYLSEISPKEIRGSLGQVTAIFICIGVFTGQLLGLPELLGKESTWPYLFGVIVVPAVVQLLSLPFLPDSPRYLLLEKHNEARAVKAFQTFLGKADVSQEVEEVLAESRVQRSIRLVSVLELLRAPYVRWQVVTVIVTMACYQLCGLNAIWFYTNSIFGKAGIPPAKIPYVTLSTGGIETLAAVFSGLVIEHLGRRPLLIGGFGLMGLFFGTLTITLTLQDHAPWVPYLSIVGILAIIASFCSGPGGIPFILTGEFFQQSQRPAAFIIAGTVNWLSNFAVGLLFPFIQKSLDTYCFLVFATICITGAIYLYFVLPETKNRTYAEISQAFSKRNKAYPPEEKIDSAVTDGKINGRP
In the case of B2, the “other: transport activity” value in series [1] (control: wild type GLUT9b) was “no change”. Further, the “other: inhibition of urate uptake by TMEM85” value in series [2] (control: wild type GLUT9b) is recorded as “no change”. The localisation_or_trafficking entry in series [4] is “no change”. In addition, in series [3] (control: wild type GLUT9b), the “other: inhibition of urate uptake by ITM2B, other: percent inhibition of uptake” value is recorded as “no change, ∼65–70 vs 65–70”.
